Data published in publication PMC3375335, “The Interdomain Linker of AAV-2 Rep68 Is an Integral Part of Its Oligomerization Domain: Role of a Conserved SF3 Helicase Residue in Oligomerization” (PLoS Pathogens, 2012).
Where two headings read alike, the source gives them in different places.

How the values were obtained:
[1] = molecular target: T1, Rep68ΔN200 (Adeno-associated virus 2 Srivastava/1982, UniProt P03132); assay type: binding; conditions: 36 µM protein, 200 mM NaCl, pH 8.0, 20 °C
T1 construct: gene Rep68; Rep68 without the OBD: full interdomain linker plus helicase domain, to residue 536; start 201 read from the name; pET-15b, E. coli BL21(DE3); also printed Rep68Δ200, RepΔN200

[2] = molecular target: T2, Rep68ΔN209 (Adeno-associated virus 2 Srivastava/1982, UniProt P03132); assay type: binding; conditions: 36 µM protein, 200 mM NaCl, pH 8.0, 20 °C
T2 construct: gene Rep68; residues 210-536, part of linker plus helicase domain; pET-15b, E. coli BL21(DE3)

[3] = molecular target: Rep68ΔN214 (adeno-associated virus 2 (AAV-2)) (UniProt P03132); assay: AUC
[4] = molecular target: Rep68Y224A (adeno-associated virus 2 (AAV-2)) (UniProt P03132); assay: AUC
[5] = molecular target: Rep68ΔN209 (adeno-associated virus 2 (AAV-2)) (UniProt P03132); assay: AUC
[6] = molecular target: Rep68ΔN200 (adeno-associated virus 2 (AAV-2)) (UniProt P03132); assay: cross-linking; DMP (dimethyl pimelimidate), 30 fold molar excess, 60 min at room temperature, protein 2 mg/ml, 25 mM HEPES, 200 mM NaCl, pH 8.0; 8% SDS-PAGE
[7] = molecular target: Rep68ΔN200 (adeno-associated virus 2 (AAV-2)) (UniProt P03132); assay: AUC; sedimentation velocity without nucleotide, 40,000 rpm, 20°C, 25 mM Tris-HCl pH 8.0, 200 mM NaCl, 2 mM TCEP; c(s) by sedfit; constants from a global fit (sedphat) to a monomer-dimer model: dimer to monomers
[8] = molecular target: Rep68ΔN200 (adeno-associated virus 2 (AAV-2)) (UniProt P03132); assay: AUC
[9] = molecular target: OBD-linker (residues 1-224) of AAV-2 Rep68 (adeno-associated virus 2 (AAV-2)) (UniProt P03132); assay: AUC; sedimentation velocity without nucleotide, 40,000 rpm, 20°C, 25 mM Tris-HCl pH 8.0, 200 mM NaCl, 2 mM TCEP; c(s) by sedfit; constants from a global fit (sedphat) to a monomer-dimer model: dimer to monomers
[10] = molecular target: T3, AAV-2 Rep40 (adeno-associated virus 2 (AAV-2), UniProt P03132 225-536); assay: as above; conditions: both partners purified
[11] = molecular target: T3, AAV-2 Rep40; assay: as above; conditions: both partners purified; remark: listed apart in the source

## Nc1ncnc2c1ncn2[C@@H]1O[C@H](COP(=O)(O)OP(=O)(O)O)[C@@H](O)[C@H]1O [ADP]
[1]; 5 mM ADP
  sedimentation velocity ultracentrifugation, nucleotide-induced oligomerization: ADP produces two main populations sedimenting at ∼3S and ∼7S
[2]; 5 mM ADP
  sedimentation velocity ultracentrifugation, nucleotide-induced oligomerization: ADP produces two main populations sedimenting at ∼3S and ∼7S

## Rep68ΔN214 (from UniProt P03132 215-536) (domain or fragment)
[3]
  stoichiometry N: 2

## Rep68Y224A (from UniProt P03132 1-536) (natural protein)
[4]
  stoichiometry N: 2

## Nc1ncnc2c1ncn2[C@@H]1O[C@H](COP(=O)(O)OP(=O)(O)OP(=O)(O)O)[C@@H](O)[C@H]1O [ATP]
[1]; 5 mM ATP
  sedimentation velocity ultracentrifugation, nucleotide-induced oligomerization: ATP on the other hand, seems to generate more stable species at ∼7S
[2]; 5 mM ATP
  sedimentation velocity ultracentrifugation, nucleotide-induced oligomerization: ATP on the other hand, seems to generate more stable species at ∼7S

## Rep68ΔN209 (from UniProt P03132 210-536) (domain or fragment)
[5]
  stoichiometry N: 2

## Rep68ΔN200 (from UniProt P03132 201-536) (domain or fragment)
[6]
  stoichiometry N: 2
[7]
  Kd: 79 µM
  logKa: 4.1
  stoichiometry N: 2
[8]
  stoichiometry N: 2

## OBD-linker (residues 1-224) of AAV-2 Rep68 (from UniProt P03132 1-224) (domain or fragment)
[9]
  stoichiometry N: 2

B1: AAV-2 Rep40 (natural protein)
chain: MELVGWLVDKGITSEKQWIQEDQASYISFNAASNSRSQIKAALDNAGKIMSLTKTAPDYLVGQQPVEDISSNRIYKILELNGYDPQYAASVFLGWATKKFGKRNTIWLFGPATTGKTNIAEAIAHTVPFYGCVNWTNENFPFNDCVDKMVIWWEEGKMTAKVVESAKAILGGSKVRVDQKCKSSAQIDPTPVIVTSNTNMCAVIDGNSTTFEHQQPLQDRMFKFELTRRLDHDFGKVTKQEVKDFFRWAKDHVVEVEHEFYVKKGGAKKRPAPSDADISEPKRVRESVAQPSTSDAEASINYADRLARGHSL
modifications: Start at 225 follows from the text; the C-terminus of the assayed Rep40 is not given, so full-length Rep40 (to 536) is taken; 225-490 is given only for the crystal structure 1S9H. ATP or ADP added …
[10]
  Kd: 730 µM
[11]
  stoichiometry N: 2
